One molecule from US20200270301A1 (UBIPROTEIN, published 2020) can be followed below.

In the assay the target is T1, HA-ubiquitin (expressed from pMT123-HA-ubiquitin) (UniProt P0CG48 1-76).
T1 construct: Co-expressed in HEK 293T cells and detected with anti-HA after anti-myc immunoprecipitation; It attaches covalently (isopeptide bond, polyubiquitin chains); P0CG48 is the polyubiquitin-C precursor; a single ubiquitin unit is 76 residues; not shown: HA tag of the pMT123-HA-ubiquitin plasmid
Kind of assay: covalent ubiquitination in HEK 293T cells: anti-myc IP, anti-HA Western blot.

B1: myc-EGF WT (expressed from pcDNA3-myc-EGF WT) (ligand)
chain: NSDSECPLSHDGYCLHDGVCMYIEALDKYACNCVVGYIGERCQYRDLKWWELR
modifications: not fully specified
notes: Expressed inside HEK 293T cells; also called human EGF; not shown: myc tag of the pcDNA3-myc vector
For B1, the binding result is listed as “binds”.
